The record followed here is doi:10.1101/2022.09.12.507593 (bioRxiv, 2022).

B1: WT FUS LCRN (Fused in sarcoma N-terminal low-complexity region, aa 1-214) (domain or fragment, human, UniProt P35637 1-214, looked up)
chain: MASNDYTQQATQSYGAYPTQPGQGYSQQSSQPYGQQSYSGYSQSTDTSGYGQSSYSSYGQSQNTGYGTQSTPQGYGSTGGYGSSQSSQSSYGQQSSYPGYGQQPAPSSTSGSYGSSSQSSSYGQPQSGSYSQQPSYGGQQQSYGQQQSYNPPQGYGQQNQYNSSSGGGGGGGGGGNYGQDQSSMSSGGGSGGGYGNQDQSGGGGSGGYGQQDRG

Assay [1] deals with T1, OGT-TPR not fused to SUMO (aa 2-474 of ncOGT, SUMO tag removed) (human, UniProt O15294-1 2-474).
T1 sequence (looked up): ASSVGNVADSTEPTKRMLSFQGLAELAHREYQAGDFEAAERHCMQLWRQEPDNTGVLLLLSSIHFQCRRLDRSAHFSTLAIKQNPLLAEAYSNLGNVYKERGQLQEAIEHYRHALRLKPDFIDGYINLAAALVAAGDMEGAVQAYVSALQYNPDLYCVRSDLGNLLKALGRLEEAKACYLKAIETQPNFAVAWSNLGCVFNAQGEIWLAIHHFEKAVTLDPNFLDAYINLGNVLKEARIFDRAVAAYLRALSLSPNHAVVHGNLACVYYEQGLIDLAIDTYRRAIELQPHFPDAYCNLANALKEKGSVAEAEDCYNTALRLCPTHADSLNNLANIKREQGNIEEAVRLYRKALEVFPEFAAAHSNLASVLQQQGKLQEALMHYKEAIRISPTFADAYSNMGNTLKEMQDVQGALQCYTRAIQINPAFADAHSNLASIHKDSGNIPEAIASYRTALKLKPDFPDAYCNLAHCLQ
Nature of the assay: NMR titration.

In assay [2] the target is B1. Nature of the assay: NMR titration.

As to B1, the binding result in assay [1] is recorded as “binds”.

B2: SUMO-fused TPR region of OGT (OGT-TPR, aa 2-474 of ncOGT) (domain or fragment, human, UniProt O15294-1 2-474, looked up)
chain: ASSVGNVADSTEPTKRMLSFQGLAELAHREYQAGDFEAAERHCMQLWRQEPDNTGVLLLLSSIHFQCRRLDRSAHFSTLAIKQNPLLAEAYSNLGNVYKERGQLQEAIEHYRHALRLKPDFIDGYINLAAALVAAGDMEGAVQAYVSALQYNPDLYCVRSDLGNLLKALGRLEEAKACYLKAIETQPNFAVAWSNLGCVFNAQGEIWLAIHHFEKAVTLDPNFLDAYINLGNVLKEARIFDRAVAAYLRALSLSPNHAVVHGNLACVYYEQGLIDLAIDTYRRAIELQPHFPDAYCNLANALKEKGSVAEAEDCYNTALRLCPTHADSLNNLANIKREQGNIEEAVRLYRKALEVFPEFAAAHSNLASVLQQQGKLQEALMHYKEAIRISPTFADAYSNMGNTLKEMQDVQGALQCYTRAIQINPAFADAHSNLASIHKDSGNIPEAIASYRTALKLKPDFPDAYCNLAHCLQ
In the case of B2, in assay [2], the “average peak intensity ratio (plus OGT-TPR/apo)” value was 0.48.
